# According to patent US20180009871A1 (INTARCIA THERAPEUTICS, published 2018):
# Where no end group is shown, it is not given here. [ ]: non-standard residue; d: D form. Formula III = not defined here; Formula II = not defined here; Aib = CC(C)(N)C(=O)O
# Assays:
# Test in all cases: cell-based or functional assay
# [1] = molecular target: T1, human GLP-1 receptor (GLP-1R) (human, UniProt P43220 24-463)
# [2] = molecular target: T1, human GLP-1 receptor (GLP-1R); remark: listed apart in the source
# [3] = molecular target: human glucagon receptor (GCGR) (human, UniProt P47871 26-477)
# T1 sequence (P43220 24-463): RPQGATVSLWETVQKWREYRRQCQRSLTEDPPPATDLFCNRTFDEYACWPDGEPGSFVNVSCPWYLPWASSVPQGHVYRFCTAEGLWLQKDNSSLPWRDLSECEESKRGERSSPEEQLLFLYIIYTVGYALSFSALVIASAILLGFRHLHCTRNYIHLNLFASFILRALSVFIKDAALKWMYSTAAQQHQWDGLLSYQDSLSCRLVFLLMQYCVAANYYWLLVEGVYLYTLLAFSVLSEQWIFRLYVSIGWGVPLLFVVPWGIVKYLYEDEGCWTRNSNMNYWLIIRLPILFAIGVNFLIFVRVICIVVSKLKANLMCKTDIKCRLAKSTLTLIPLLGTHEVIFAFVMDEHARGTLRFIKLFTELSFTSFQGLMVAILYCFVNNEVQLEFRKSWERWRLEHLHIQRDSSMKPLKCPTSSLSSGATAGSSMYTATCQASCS
Binder,hGLP1 pEC50 (cAMP) [1],GLP-1R pEC 50 [2],GluR pEC 50 [3]
YSHGTFTSDYSKYLDAARAQEFVKWLEDEPSSGAPPPS [Compound A97],< 9 pEC50,–,–
YSHGTFTSDYTRLLESKRAQEFVKWLEDEPSSGAPPPS [Compound A98],< 9 pEC50,–,–
YSHGTFTSDYSKYLD[Aib]KSAQEFV[Aib]WLEDEPSSK(Formula III)APPPS-OH (reading uncertain) [Compound B13],–,< 6 pEC50,9.2 pEC50
YSHGTFTSDYSKYLD[Aib]KSAQEFVK(Formula III)WLEDEPSSGAPPPS-OH (reading uncertain) [Compound B14],–,< 6 pEC50,9.3 pEC50
YSHGTFTSDYSKYLDK(Formula III)KSAQEFV[Aib]WLEDEPSSGAPPPS-OH (reading uncertain) [Compound B15],–,< 6 pEC50,9.9 pEC50
YSHGTFTSDK(Formula III)SKYLD[Aib]KSAQEFV[Aib]WLEDEPSSGAPPPS-OH (reading uncertain) [Compound B16],–,8.3 pEC50,8.5 pEC50
WSQGTFTSDYSKYLD[Aib]KRAQEFV[Aib]WLEDEPSSK(Formula II)APPPS-OH (reading uncertain) [Compound B17],–,< 6 pEC50,10.5 pEC50
WSQGTFTSDYSKYLD[Aib]KRAQEFVK(Formula II)WLEDEPSSGAPPPS-OH (reading uncertain) [Compound B18],–,< 6 pEC50,10.2 pEC50
WSQGTFTSDYSKYLDK(Formula II)KRAQEFV[Aib]WLEDEPSSGAPPPS-OH (reading uncertain) [Compound B19],–,6.3 pEC50,10.6 pEC50
WSQGTFTSDK(Formula II)SKYLD[Aib]KRAQEFV[Aib]WLEDEPSSGAPPPS-OH (reading uncertain) [Compound B20],–,6.5 pEC50,11.1 pEC50
WSQGTFTSDYSKYLDK(Formula III)KRAQEFV[Aib]WLEDEPSSGAPPPS-OH (reading uncertain) [Compound B23],–,6.5 pEC50,9.5 pEC50
WSQGTFTSDK(Formula III)SKYLD[Aib]KRAQEFV[Aib]WLEDEPSSGAPPPS-OH (reading uncertain) [Compound B24],–,6.8 pEC50,8.2 pEC50
YSHGTFTSDYSKYLD[Aib]KRAQEFVIWLEDEPSSK(Formula II)APPPS-OH (reading uncertain) [Compound B25],–,< 6 pEC50,10.5 pEC50
YSHGTFTSDYSKYLDK(Formula II)KRAQEFVIWLEDEPSSGAPPPS (reading uncertain) [Compound B26],–,< 6 pEC50,11 pEC50
YSHGTFTSDK(Formula II)SKYLD[Aib]KRAQEFVIWLEDEPSSGAPPPS-OH (reading uncertain) [Compound B27],–,6.6 pEC50,11.5 pEC50
YSHGTFTSDYSKYLD[Aib]KRAQEFVIWLEDEPSSK(Formula III)APPPS-OH (reading uncertain) [Compound B29],–,7 pEC50,9.8 pEC50
YSHGTFTSDYSKYLD[Aib]KRAQK(Formula III)FVIWLEDEPSSGAPPPS-OH (reading uncertain) [Compound B30],–,7 pEC50,9.7 pEC50
YSHGTFTSDYSKYLDK(Formula III)KRAQEFVIWLEDEPSSGAPPPS (reading uncertain) [Compound B31],–,7.4 pEC50,10.6 pEC50

Binder,hGLP1 pEC50 (cAMP) [1],GLP-1R pEC 50 [2],GluR pEC 50 [3]
YSHGTFTSDK(Formula III)SKYLD[Aib]KRAQEFVIWLEDEPSSGAPPPS-OH (reading uncertain) [Compound B32],–,7.8 pEC50,9.4 pEC50
YSQGTFTSDYSKYLDAARAQEFVKWLEDEPKSK(Formula II)SPPPS-NH2 (reading uncertain) [Compound B33],–,< 6 pEC50,10.6 pEC50
YSQGTFTSDYSKYLDAARAQEFVK(Formula II)WLEDEPKSKSPPPS-NH2 (reading uncertain) [Compound B34],–,< 6 pEC50,9.8 pEC50
YSQGTFTSDYSKYLDK(Formula II)ARAQEFVKWLEDEPKSKSPPPS-NH2 (reading uncertain) [Compound B35],–,6.6 pEC50,11.1 pEC50
YSQGTFTSDK(Formula II)SKYLDAARAQEFVKWLEDEPKSKSPPPS-NH2 (reading uncertain) [Compound B36],–,8.1 pEC50,11.5 pEC50
YSQGTFTSDYSKYLDAARAQEFVKWLEDEPKSK(Formula III)SPPPS-NH2 (reading uncertain) [Compound B37],–,6.2 pEC50,10.1 pEC50
YSQGTFTSDYSKYLDAARAQEFVK(Formula III)WLEDEPKSKSPPPS-NH2 (reading uncertain) [Compound B38],–,6 pEC50,9.6 pEC50
YSQGTFTSDYSKYLDK(Formula III)ARAQEFVKWLEDEPKSKSPPPS-NH2 (reading uncertain) [Compound B39],–,6 pEC50,10.9 pEC50
YSQGTFTSDK(Formula III)SKYLDAARAQEFVKWLEDEPKSKSPPPS-NH2 (reading uncertain) [Compound B40],–,7.2 pEC50,11.9 pEC50
YSHGTFTSDYSKYLDSARAQEFVKWLEDEPSSK(Formula II)APPPS-NH2 (reading uncertain) [Compound B41],–,< 6 pEC50,10.6 pEC50
YSHGTFTSDYSKYLDSARAQEFVK(Formula II)WLEDEPSSGAPPPS-NH2 (reading uncertain) [Compound B42],–,< 6 pEC50,9.7 pEC50
YSHGTFTSDYSKYLDK(Formula II)ARAQEFVKWLEDEPSSGAPPPS-NH2 (reading uncertain) [Compound B43],–,< 6 pEC50,11.1 pEC50
YSHGTFTSDK(Formula II)SKYLDSARAQEFVKWLEDEPSSGAPPPS-NH2 (reading uncertain) [Compound B44],–,7.2 pEC50,11.9 pEC50
YSHGTFTSDYSKYLDSARAQEFVKWLEDEPSSK(Formula III)APPPS-NH2 (reading uncertain) [Compound B45],–,< 6 pEC50,9.8 pEC50
YSHGTFTSDYSKYLDSARAQEFVK(Formula III)WLEDEPSSGAPPPS-NH2 (reading uncertain) [Compound B46],–,< 6 pEC50,9.5 pEC50
YSHGTFTSDYSKYLDK(Formula III)ARAQEFVKWLEDEPSSGAPPPS-NH2 (reading uncertain) [Compound B47],–,< 6 pEC50,10.8 pEC50
YSHGTFTSDK(Formula III)SKYLDSARAQEFVKWLEDEPSSGAPPPS-NH2 (reading uncertain) [Compound B48],–,< 6 pEC50,9.2 pEC50
